Data: patent US20220403043A1 (YEDA RESEARCH AND DEVELOPMENT, published 2022)

T1: recombinant mouse CD11c (R&D Systems) (mouse, UniProt Q9QXH4 20-1116)
T1 construct: extracellular domain; Bought protein; also called recombinant CD11c
T1 sequence (looked up): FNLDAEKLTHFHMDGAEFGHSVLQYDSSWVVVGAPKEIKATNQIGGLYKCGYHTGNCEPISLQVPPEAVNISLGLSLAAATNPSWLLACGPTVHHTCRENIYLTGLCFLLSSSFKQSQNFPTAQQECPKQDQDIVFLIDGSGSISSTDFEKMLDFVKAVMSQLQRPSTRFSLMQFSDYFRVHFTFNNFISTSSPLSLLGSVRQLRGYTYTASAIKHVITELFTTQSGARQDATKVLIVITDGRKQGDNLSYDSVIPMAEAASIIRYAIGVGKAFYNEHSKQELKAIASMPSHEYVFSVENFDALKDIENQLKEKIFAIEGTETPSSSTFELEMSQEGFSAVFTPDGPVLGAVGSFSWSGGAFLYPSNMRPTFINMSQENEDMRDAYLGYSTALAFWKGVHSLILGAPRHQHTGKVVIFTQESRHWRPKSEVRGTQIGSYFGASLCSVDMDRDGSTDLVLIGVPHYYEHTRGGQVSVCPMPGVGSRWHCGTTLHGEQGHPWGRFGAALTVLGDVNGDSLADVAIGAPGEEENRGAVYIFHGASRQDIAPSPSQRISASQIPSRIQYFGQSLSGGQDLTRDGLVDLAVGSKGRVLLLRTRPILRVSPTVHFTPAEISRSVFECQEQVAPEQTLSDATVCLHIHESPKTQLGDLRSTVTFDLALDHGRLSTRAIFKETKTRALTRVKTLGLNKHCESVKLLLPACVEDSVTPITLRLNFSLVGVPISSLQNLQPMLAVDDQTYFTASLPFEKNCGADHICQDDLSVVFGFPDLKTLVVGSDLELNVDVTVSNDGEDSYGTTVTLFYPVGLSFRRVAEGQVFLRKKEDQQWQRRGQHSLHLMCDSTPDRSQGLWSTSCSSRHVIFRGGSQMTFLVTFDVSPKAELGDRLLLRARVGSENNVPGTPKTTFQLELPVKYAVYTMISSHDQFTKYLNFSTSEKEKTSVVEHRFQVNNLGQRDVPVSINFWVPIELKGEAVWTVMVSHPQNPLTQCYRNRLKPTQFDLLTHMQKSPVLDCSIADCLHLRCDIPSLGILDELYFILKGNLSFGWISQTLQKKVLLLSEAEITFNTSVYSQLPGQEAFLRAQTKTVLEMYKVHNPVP

T2: recombinant hFcγRIIB (human, UniProt P31994 43-217, limits assumed)
T2 construct: construct not described; also called human FcγRIIB
T2 sequence (looked up): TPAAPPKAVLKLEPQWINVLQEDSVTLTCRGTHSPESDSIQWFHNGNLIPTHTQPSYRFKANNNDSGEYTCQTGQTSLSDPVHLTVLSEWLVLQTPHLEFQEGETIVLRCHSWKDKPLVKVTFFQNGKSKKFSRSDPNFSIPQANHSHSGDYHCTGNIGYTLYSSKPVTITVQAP


Tests used:
[1] = biological target: T3, recombinant human DEC-205 (Sino Biological), extracellular domain (human, UniProt O60449 28-1666); test: ELISA titration on coated recombinant human DEC-205 (FIG. 4B)
T3 construct: extracellular domain; Bought protein
T3 sequence (O60449 28-1666): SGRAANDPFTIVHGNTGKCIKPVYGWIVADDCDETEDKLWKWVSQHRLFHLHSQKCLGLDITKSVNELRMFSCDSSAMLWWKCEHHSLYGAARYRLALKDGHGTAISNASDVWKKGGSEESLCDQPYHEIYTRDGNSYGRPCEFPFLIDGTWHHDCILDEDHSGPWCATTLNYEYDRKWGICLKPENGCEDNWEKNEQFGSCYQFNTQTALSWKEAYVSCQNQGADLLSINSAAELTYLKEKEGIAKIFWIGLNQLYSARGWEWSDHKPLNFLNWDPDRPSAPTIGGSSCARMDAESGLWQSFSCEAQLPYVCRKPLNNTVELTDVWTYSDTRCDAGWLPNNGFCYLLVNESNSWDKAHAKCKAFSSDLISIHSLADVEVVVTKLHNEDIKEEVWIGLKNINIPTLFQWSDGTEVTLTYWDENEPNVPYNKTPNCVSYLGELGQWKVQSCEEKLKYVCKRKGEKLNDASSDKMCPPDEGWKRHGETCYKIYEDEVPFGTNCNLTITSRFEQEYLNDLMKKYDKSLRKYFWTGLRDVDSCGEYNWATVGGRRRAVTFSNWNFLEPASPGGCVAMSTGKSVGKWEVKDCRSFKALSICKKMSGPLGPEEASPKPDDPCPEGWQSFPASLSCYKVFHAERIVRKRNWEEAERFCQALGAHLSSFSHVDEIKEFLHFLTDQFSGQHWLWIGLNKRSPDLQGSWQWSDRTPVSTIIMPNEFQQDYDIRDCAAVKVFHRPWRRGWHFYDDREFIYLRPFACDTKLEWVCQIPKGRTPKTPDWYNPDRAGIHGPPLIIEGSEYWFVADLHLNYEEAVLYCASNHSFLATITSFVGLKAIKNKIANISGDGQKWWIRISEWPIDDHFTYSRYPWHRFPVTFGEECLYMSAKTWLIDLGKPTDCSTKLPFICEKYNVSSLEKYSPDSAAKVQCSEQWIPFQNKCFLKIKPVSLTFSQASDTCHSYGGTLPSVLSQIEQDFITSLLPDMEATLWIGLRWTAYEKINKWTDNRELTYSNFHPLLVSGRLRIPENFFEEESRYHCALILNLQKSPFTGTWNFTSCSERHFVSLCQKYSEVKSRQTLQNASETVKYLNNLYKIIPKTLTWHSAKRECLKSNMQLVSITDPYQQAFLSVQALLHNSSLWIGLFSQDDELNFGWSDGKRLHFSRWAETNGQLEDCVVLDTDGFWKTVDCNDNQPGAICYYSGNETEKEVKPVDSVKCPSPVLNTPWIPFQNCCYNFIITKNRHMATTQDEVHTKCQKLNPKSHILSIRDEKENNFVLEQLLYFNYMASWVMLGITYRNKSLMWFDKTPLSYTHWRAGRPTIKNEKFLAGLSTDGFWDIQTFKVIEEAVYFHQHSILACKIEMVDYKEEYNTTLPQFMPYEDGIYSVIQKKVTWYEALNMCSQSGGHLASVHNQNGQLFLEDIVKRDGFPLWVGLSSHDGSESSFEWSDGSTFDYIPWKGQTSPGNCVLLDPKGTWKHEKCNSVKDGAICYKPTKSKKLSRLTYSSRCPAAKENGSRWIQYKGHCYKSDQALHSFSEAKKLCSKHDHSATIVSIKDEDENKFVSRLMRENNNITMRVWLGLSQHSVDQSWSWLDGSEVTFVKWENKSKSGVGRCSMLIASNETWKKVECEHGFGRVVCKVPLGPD
Protocol: (§1) All sequential steps were performed at room temperature. After being washed, the plates were blocked for 1 hr with 1×PBS with 2% Bovine serum Albumin and were subsequently incubated for 1 hr with serially diluted IgGs (1:5 consecutive dilutions in 1×PBS with 2% Bovine serum Albumin). For dual binding ELISA assay, plates were incubated for 1 hr with biotinylated human CD40 (Acrobiosystems). After washing, plates were incubated for 1 hr with horseradish peroxidase-conjugated anti-human IgG (Jackson ImmunoResearch) or with horseradish peroxidase-conjugated Streptavidin (Biolegend). Detection was performed using a one component substrate solution (TMB) and reactions stopped with the addition of 0.18 M sulphuric acid. Absorbance at 450 nm was immediately recorded using a SpectraMax Plus spectrophotometer (Molecular Devices), and background absorbance from negative control samples was subtracted.

[2] = biological target: T1, recombinant mouse CD11c (R&D Systems); test: ELISA titration on coated recombinant mouse CD11c (FIG. 4B)
Protocol: as §1

[3] = biological target: T4, biotinylated human CD40 (Acrobiosystems) (human, UniProt P25942 21-193, biotinylated (site not stated)); test: simultaneous binding ELISA (FIG. 4A-D)
T4 construct: also called huCD40
T4 sequence (P25942 21-193 limits assumed): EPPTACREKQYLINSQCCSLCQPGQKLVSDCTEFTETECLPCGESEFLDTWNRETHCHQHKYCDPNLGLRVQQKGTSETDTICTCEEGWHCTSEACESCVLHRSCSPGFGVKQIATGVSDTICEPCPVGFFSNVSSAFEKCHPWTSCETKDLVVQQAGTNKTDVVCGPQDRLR
Protocol: as §1

[4] = biological target: T3, recombinant human DEC-205 (Sino …); test: simultaneous binding ELISA (FIG. 4A-D)
Protocol: as §1

[5] = biological target: T5, recombinant human CD40 (Sino Biological), extracellular domain (human, UniProt P25942 21-193); test: ELISA titration on coated recombinant huCD40 (FIG. 4A)
T5 construct: also called huCD40; hCD40
T5 sequence (P25942 21-193 limits assumed): as above
Protocol: as §1

recombinant hFcγRIIB = biological target: T2, recombinant hFcγRIIB; test: ELISA on recombinant hFcγRIIB (FIG. 9B)

| Binder | binding result [1] | binding result (recombinant hFcγRIIB) | also measured |
| --- | --- | --- | --- |
| anti-CD40 (2141) monospecific Ab (antibody, V domains shown, 2141 variable regions cloned on human IgG1 / human kappa backbones; also called clone 21.4.1; CD40 mAb) VH: not shown VL: DIQMTQSPSSVSASVGDRVTITCRASQGIYSWLAWYQQKPGKAPNLLIYTASTLQSGVPSRFSGSGSGTDFTLTISSLQPEDFATYYCQQANIFPLTFGGGTKVEIKR | no binding |  | binding result [2]: no binding |
| anti-CD40/DEC-205 bispecific Ab (2141/HD-109) (bispecific antibody, Whole human IgG1 bispecific of four chains; Knobs-into-holes: Y349C/T366S/L368A/Y407V on the anti-DC arm and S354C/T366W on the anti-CD40 arm; One arm is in CrossMab CH1-CL format) VH 1: not shown VL 1: DIQMTQSPSSVSASVGDRVTITCRASQGIYSWLAWYQQKPGKAPNLLIYTASTLQSGVPSRFSGSGSGTDFTLTISSLQPEDFATYYCQQANIFPLTFGGGTKVEIKRTVAAPSVFIFPPSDEQLKSGTASVVCLLNNFYPREAKVQWKVDNALQSGNSQESVTEQDSKDSTYSLSSTLTLSKADYEKHKVYACEVTHQGLSSPVTKSFNRGEC VH 2: QVQLTESGPGLVAPSQSLSITCSVSGFSLTNYAINWVRQPPGKGLEWLGIIWTGGGTNYNSTLKSRLSISKDNSKSQVFLKMNSLQTDDTARYYCARVSHDYFYGSSPYYYGMDYWGQGTSVTVSS VL 2: DIQMNQSPSSLSASLGDTITITCHASQNINVWLSWYQQKPGNIPKLLIYKVSNLHTGVPSRFSGSGSGTGFTLTISSLQPEDIATYYCQQGQSYPWTFGGGTKLEIK |  |  | binding result [3]: binds; binding result [4]: binds; binding result [5]: binds |
| CD40/CD11c-V11 (bispecific antibody, human IgG1, Human IgG1 Fc with V11 (G237D/P238D/H268D/P271G/A330R); also called anti-CD40/CD11c bsAb hIgG1-V11; IgG1-V11; copies: 1 + 1 + 1 + 1) heavy 1: not shown light 1: DIQMTQSPSSVSASVGDRVTITCRASQGIYSWLAWYQQKPGKAPNLLIYTASTLQSGVPSRFSGSGSGTDFTLTISSLQPEDFATYYCQQANIFPLTFGGGTKVEIKRTVAAPSVFIFPPSDEQLKSGTASVVCLLNNFYPREAKVQWKVDNALQSGNSQESVTEQDSKDSTYSLSSTLTLSKADYEKHKVYACEVTHQGLSSPVTKSFNRGEC heavy 2: EVQLVEKGGGLVQPGKSLKLSCAASGFTFSEYWMNWVRQAPGKGLEWVGVIKYKYSNYATEYAESVKGRFTISRDDSKSSVYLQMNNLRAEDTAIYYCARTWENWYFDFWGQGTQVTVSSASVAAPSVFIFPPSDEQLKSGTASVVCLLNNFYPREAKVQWKVDNALQSGNSQESVTEQDSKDSTYSLSSTLTLSKADYEKHKVYACEVTHQGLSSPVTKSFNRGECDRSEPKSCDKTHTCPPCPAPELLGDDSVFLFPPKPKDTLMISRTPEVTCVVVDVSDEDGEVKFNWYVDGVEVHNAKTKPREEQYNSTYRVVSVLTVLHQDWLNGKEYKCKVSNKALPRPIEKTISKAKGQPREPQVCTLPPSREEMTKNQVSLSCAVKGFYPSDIAVEWESNGQPENNYKTTPPVLDSDGSFFLVSKLTVDKSRWQQGNVFSCSVMHEALHNHYTQKSLSLSPGKSAWSHPQFEK light 2: DIQMTQSPSSLPASLGDRVTIHCQASQDISNYLTWYQQKPGKAPKLLIYETNKLADGVPSRFSGSGSGRDYSFTISSLESEDVGSYYCQHYYDYPRTFGPGTKLDLKSSASTKGPSVFPLAPSSKSTSGGTAALGCLVKDYFPEPVTVSWNSGALTSGVHTFPAVLQSSGLYSLSSVVTVPSSSLGTQTYICNVNHKPSNTKVDKKVEPKSC |  | binds |  |
| CD40/DEC-205-V11 (bispecific antibody, human IgG1, Human IgG1 Fc with V11 (G237D/P238D/H268D/P271G/A330R); also called IgG1-V11; copies: 1 + 1 + 1 + 1) heavy 1: not shown light 1: DIQMTQSPSSVSASVGDRVTITCRASQGIYSWLAWYQQKPGKAPNLLIYTASTLQSGVPSRFSGSGSGTDFTLTISSLQPEDFATYYCQQANIFPLTFGGGTKVEIKRTVAAPSVFIFPPSDEQLKSGTASVVCLLNNFYPREAKVQWKVDNALQSGNSQESVTEQDSKDSTYSLSSTLTLSKADYEKHKVYACEVTHQGLSSPVTKSFNRGEC heavy 2: QVQLTESGPGLVAPSQSLSITCSVSGFSLTNYAINWVRQPPGKGLEWLGIIWTGGGTNYNSTLKSRLSISKDNSKSQVFLKMNSLQTDDTARYYCARVSHDYFYGSSPYYYGMDYWGQGTSVTVSSASVAAPSVFIFPPSDEQLKSGTASVVCLLNNFYPREAKVQWKVDNALQSGNSQESVTEQDSKDSTYSLSSTLTLSKADYEKHKVYACEVTHQGLSSPVTKSFNRGECDRSEPKSCDKTHTCPPCPAPELLGDDSVFLFPPKPKDTLMISRTPEVTCVVVDVSDEDGEVKFNWYVDGVEVHNAKTKPREEQYNSTYRVVSVLTVLHQDWLNGKEYKCKVSNKALPRPIEKTISKAKGQPREPQVCTLPPSREEMTKNQVSLSCAVKGFYPSDIAVEWESNGQPENNYKTTPPVLDSDGSFFLVSKLTVDKSRWQQGNVFSCSVMHEALHNHYTQKSLSLSPGKSAWSHPQFEK light 2: DIQMNQSPSSLSASLGDTITITCHASQNINVWLSWYQQKPGNIPKLLIYKVSNLHTGVPSRFSGSGSGTGFTLTISSLQPEDIATYYCQQGQSYPWTFGGGTKLEIKSSASTKGPSVFPLAPSSKSTSGGTAALGCLVKDYFPEPVTVSWNSGALTSGVHTFPAVLQSSGLYSLSSVVTVPSSSLGTQTYICNVNHKPSNTKVDKKVEPKSC |  | binds |  |
| anti-DEC-205 (HD109) monospecific Ab (antibody, V domains shown) VH: QVQLTESGPGLVAPSQSLSITCSVSGFSLTNYAINWVRQPPGKGLEWLGIIWTGGGTNYNSTLKSRLSISKDNSKSQVFLKMNSLQTDDTARYYCARVSHDYFYGSSPYYYGMDYWGQGTSVTVSS VL: DIQMNQSPSSLSASLGDTITITCHASQNINVWLSWYQQKPGNIPKLLIYKVSNLHTGVPSRFSGSGSGTGFTLTISSLQPEDIATYYCQQGQSYPWTFGGGTKLEIK | binds |  |  |
